Experimental findings from patent publication US20240132578A1 are described below.

Some results are limits rather than exact numbers.

Common to all, as to test: cell-based or functional assay
The target of test [1] is HIV-1 Env of isolate MGRM-C-027 (subtype C), on pseudovirus (HIV-1).
For test [2], the target named is HIV-1 Env of isolate 92RW008 (subtype A) (HIV-1).
Test [3] concerns the target HIV-1 Env of isolate 92UG024 (HIV-1).
The target of test [4] is HIV-1 Env of isolate 98CN009 (HIV-1).
Test [5] addresses HIV-1 Env of isolate MGRM-C-025 (subtype C), on pseudovirus (HIV-1).
The target of test [6] is HIV-1 Env of pseudovirus isolate CAAN.A2 (clade B) (HIV-1).
For test [7], the target named is HIV-1 Env of isolate MGRM-G-016 (subtype G) (HIV-1).
Test [8] deals with HIV-1 Env of isolate 92UG024 (clade D pseudovirus) (HIV-1).
Test [9] addresses HIV-1 Env of isolate 92RW026 (clade A pseudovirus) (HIV-1).
In test [10] the target is HIV-1 envelope glycoprotein (Env) of isolate MGRM-C-025 (HIV-1).
In test [11] the target is HIV-1 Env of isolate MGRM-D-020 (clade D pseudovirus) (HIV-1).
For test [12], the target named is HIV-1 Env of isolate MGRM-A-002 (clade A pseudovirus) (HIV-1).
Test [13] concerns the target HIV-1 Env of isolate MGRM-A-004 (clade A pseudovirus) (HIV-1).
For test [14], the target named is HIV-1 Env of isolate QH0692.42 (Acute), clade B (HIV-1).
In test [15] the target is HIV-1 Env of pseudovirus MGRM-G-028 (HIV-1).
Test [16] addresses HIV-1 Env of isolate MGRM-A-008 (clade A pseudovirus) (HIV-1).
Test [17] concerns the target HIV-1 MGRM-AE-007 Env (pseudovirus) (HIV-1).
In test [18] the target is HIV-1 92UG005 envelope (Env) on pseudovirus (HIV-1).
For test [19], the target named is HIV-1 Env of isolate TRO.11 (Acute), clade B (HIV-1).
For test [20], the target named is HIV-1 MGRM-AG-002 Env (pseudovirus) (HIV-1).
Test [21] deals with HIV-1 envelope glycoprotein (Env) of isolate MGRM-C-020 (HIV-1).
Test [22] has as its target HIV-1 envelope glycoprotein (Env) of isolate 93IN905 (HIV-1).
For test [23], the target named is HIV-1 Env of pseudovirus MGRM-G-011 (HIV-1).
Test [24] addresses HIV-1 Env of isolate MGRM-AG-003 (subtype AG) (HIV-1).
For test [25], the target named is HIV-1 JR-CSF Env N411A (HIV-1 (isolate JR-CSF)) (UniProt P20871).
The target of test [26] is HIV-1 Env of isolate MGRM-A-014 (subtype A) (HIV-1).
Test [27] has as its target HIV-1 Env of pseudovirus isolate MGRM-C-008 (clade C) (HIV-1).
Test [28] has as its target HIV-1 Env of isolate MGRM-F1-014 (HIV-1).
The target in test [29] is HIV-1 Env of pseudovirus isolate MGRM-C-027 (clade C) (HIV-1).
Test [30] has as its target HIV-1 Env of pseudovirus isolate MGRM-C-024 (clade C) (HIV-1).
Test [31] addresses HIV-1 Env of isolate 92WR009 (pseudovirus) (HIV-1).
In test [32] the target is HIV-1 Env of isolate CAAN.A2 (HIV-1).
Test [33] concerns the target HIV-1 Env of isolate MGRM-D-021 (pseudovirus) (HIV-1).
The target of test [34] is HIV-1 Env of isolate MGRM-AE-005 (subtype AE) (HIV-1).
In test [35] the target is HIV-1 Env of isolate MGRM-AG-012 (pseudovirus) (HIV-1).
The target in test [36] is HIV-1 envelope glycoprotein (Env) of isolate 92WR009, subtype A (HIV-1).
Test [37] has as its target HIV-1 Env of isolate MGRM-F1-020 (pseudovirus) (HIV-1).
Test [38] has as its target HIV-1 envelope glycoprotein (Env) of isolate MGRM-Chronic-B-004, on pseudovirus (HIV-1).
Test [39] addresses HIV-1 envelope glycoprotein (Env) of isolate CAAN.A2, on pseudovirus (HIV-1).
Test [40] addresses HIV-1 envelope glycoprotein (Env) of isolate APV_13, on pseudovirus (HIV-1).
Test [41] deals with HIV-1 envelope glycoprotein (Env) of isolate PVO.4, on pseudovirus (HIV-1).
Test [42] has as its target HIV-1 envelope glycoprotein (Env) of isolate MGRM-Chronic-B-001, on pseudovirus (HIV-1).

Sequence of 4993_K13 (PGT-141) (antibody) (VH): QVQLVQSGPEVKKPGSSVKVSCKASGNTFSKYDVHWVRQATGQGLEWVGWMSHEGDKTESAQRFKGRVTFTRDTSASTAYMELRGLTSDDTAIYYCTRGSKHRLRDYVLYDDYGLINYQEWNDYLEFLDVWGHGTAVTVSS
Sequence of 4993_K13 (PGT-141) (antibody) (VL): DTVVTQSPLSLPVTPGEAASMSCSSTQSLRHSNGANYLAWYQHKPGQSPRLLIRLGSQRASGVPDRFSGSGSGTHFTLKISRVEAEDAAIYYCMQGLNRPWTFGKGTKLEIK
Sequence of 4995_P16 (PGT-145) (antibody) (VH): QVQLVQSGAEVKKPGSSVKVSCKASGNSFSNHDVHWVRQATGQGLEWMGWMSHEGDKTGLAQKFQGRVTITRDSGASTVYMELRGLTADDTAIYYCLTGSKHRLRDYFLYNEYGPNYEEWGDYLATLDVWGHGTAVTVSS
Sequence of 4995_P16 (PGT-145) (antibody) (VL): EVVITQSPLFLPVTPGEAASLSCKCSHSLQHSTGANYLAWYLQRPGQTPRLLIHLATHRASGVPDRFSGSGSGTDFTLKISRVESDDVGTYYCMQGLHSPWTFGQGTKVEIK
Sequence of 4970_K22 (PGT-144) (antibody) (VH): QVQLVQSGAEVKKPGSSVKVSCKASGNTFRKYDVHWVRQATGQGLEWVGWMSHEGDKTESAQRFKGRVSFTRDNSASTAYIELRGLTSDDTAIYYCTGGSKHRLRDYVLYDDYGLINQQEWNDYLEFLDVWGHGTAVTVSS
Sequence of 4970_K22 (PGT-144) (antibody) (VL): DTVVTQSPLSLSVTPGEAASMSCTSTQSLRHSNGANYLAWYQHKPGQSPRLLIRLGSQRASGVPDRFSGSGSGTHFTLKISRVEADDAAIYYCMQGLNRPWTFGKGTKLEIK
Sequence of 4995_E20 (PGT-142) (antibody) (VH): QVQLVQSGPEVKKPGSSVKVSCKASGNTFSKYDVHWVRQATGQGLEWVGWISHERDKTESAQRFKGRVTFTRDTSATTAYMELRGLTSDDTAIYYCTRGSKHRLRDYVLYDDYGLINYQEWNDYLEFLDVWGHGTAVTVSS
Sequence of 4980_N08 (PGT-143) (antibody) (VH): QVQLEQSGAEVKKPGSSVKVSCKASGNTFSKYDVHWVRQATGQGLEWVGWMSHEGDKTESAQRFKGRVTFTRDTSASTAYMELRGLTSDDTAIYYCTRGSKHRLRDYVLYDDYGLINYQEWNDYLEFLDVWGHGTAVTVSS
Sequence of 4980_N08 (PGT-143) (antibody) (VL): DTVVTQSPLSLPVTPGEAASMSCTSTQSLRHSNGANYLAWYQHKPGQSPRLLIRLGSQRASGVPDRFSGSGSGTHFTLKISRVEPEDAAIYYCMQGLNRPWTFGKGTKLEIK

Turning to 4995_P16 (PGT-145) (antibody), the IC50, single-round pseudovirus neutralization amounted to 0.095 µg/mL in test [1] and 0.044 µg/mL in [5]. Also, the IC50, pseudovirus neutralization is 0.4 µg/mL in [2] and 7.08 µg/mL in test [6]. Besides, the IC50 (µg/mL), pseudovirus neutralization in test [3] was found to be 1.6 µg/mL; in test [4] it was 0.136 µg/mL; in [7], 0.081 µg/mL.

Regarding b12 (antibody), the IC50, pseudovirus neutralization was 45.6 µg/mL in test [8] and above 50 µg/mL in test [11]. Moreover, the IC50 (µg/ml), pseudovirus neutralization is above 50 µg/mL in [9]; above 50 µg/mL in test [10]; above 50 µg/mL in test [12]; above 50 µg/mL in [13]; 0.73 µg/mL in test [14]; above 50 µg/mL in [15]. The IC50 (µg/ml), pseudovirus neutralization was above 50 µg/mL in test [16]; above 50 µg/mL in test [17]; above 50 µg/mL in test [19]; 0.89 µg/mL in test [20]; above 50 µg/mL in [21]; 21.4 µg/mL in [22]. This substance had an IC50 (µg/ml), pseudovirus neutralization in [23] above 50 µg/mL. In [18], this substance had a neutralization IC50 above 50 µg/mL.

For 4980_N08 (PGT-143) (antibody), the IC50, single-round pseudovirus neutralization in [1] worked out at 0.598 µg/mL; in test [5], 0.336 µg/mL. The values for the IC50, pseudovirus neutralization in [2] and in test [6] were 0.385 µg/mL and above 50 µg/mL, respectively. For the same substance, the IC50 (µg/mL), pseudovirus neutralization in test [3] is above 50 µg/mL; in [4] it was 10.2 µg/mL; in [7], 7.6 µg/mL.

In the case of 5114_A19 (PGT-128) (antibody), the IC50, pseudovirus neutralization was 34.8 µg/mL in test [24]; 0.007 µg/mL in test [26]; 0.373 µg/mL in test [27]; 0.081 µg/mL in test [29]; above 50 µg/mL in [30]; 0.032 µg/mL in test [34]. In addition, the Fold IC50 increase relative to wild-type (pseudovirus neutralization) in test [25] turned out to be 0.7 fold. Also, the IC50 (µg/mL), pseudovirus neutralization in test [28] turned out to be 0.277 µg/mL; in test [31], 0.812 µg/mL; in test [32], 1.48 µg/mL; in [33], 0.014 µg/mL.

Regarding PGV04 (antibody), the IC50 (µg/mL), pseudovirus neutralization in [35] amounted to 0.04 µg/mL; in test [7] it was 0.019 µg/mL.

For the substance 4970_K22 (PGT-144) (antibody), the results for the IC50, single-round pseudovirus neutralization in test [1] and in test [5] were above 50 µg/mL and 17.6 µg/mL, respectively. For the same substance, the IC50, pseudovirus neutralization in test [2] and in [6] was above 50 µg/mL each time. The IC50 (µg/mL), pseudovirus neutralization in test [3], in [4] and in test [7] was above 50 µg/mL in each case.

On to 4838_L06 (PGT-121) (antibody), for which the IC50, pseudovirus neutralization amounted to 1.74 µg/mL in [36]; 0.009 µg/mL in test [38]; 0.011 µg/mL in test [39]; 0.251 µg/mL in test [40]; 0.137 µg/mL in test [41]; 0.102 µg/mL in test [42]. Further, in test [37], the IC50 (µg/mL), pseudovirus neutralization was determined as 0.167 µg/mL.

For the substance 5345_I01 (PGT-137) (antibody), the IC50, pseudovirus neutralization in test [24] was above 50 µg/mL; in test [26] it was 18.6 µg/mL; in test [27], above 50 µg/mL; in test [29] it was above 50 µg/mL; in [30] it was above 50 µg/mL; in test [34] it was above 50 µg/mL. Also, the IC50 (µg/mL), pseudovirus neutralization in [28], in test [31], in test [32] and in test [33] was above 50 µg/mL throughout.

For the substance 5329_C19 (PGT-136) (antibody), the IC50, pseudovirus neutralization in test [24], in test [26], in test [27], in test [29], in [30] and in test [34] was above 50 µg/mL each time. Also, the IC50 (µg/mL), pseudovirus neutralization in test [28], in test [31], in test [32] and in [33] was above 50 µg/mL throughout.

As for 4995_E20 (PGT-142) (antibody), the values for the IC50, single-round pseudovirus neutralization in test [1] and in test [5] were 0.792 µg/mL and 0.183 µg/mL, respectively. For the same substance, the IC50, pseudovirus neutralization in [2] is 0.447 µg/mL; in test [6], above 50 µg/mL. The IC50 (µg/mL), pseudovirus neutralization in [3] was above 50 µg/mL; in test [4], 4 µg/mL; in [7] it was 8.17 µg/mL.

Consider 4993_K13 (PGT-141) (antibody), for which the IC50, single-round pseudovirus neutralization in test [1] stood at 3.27 µg/mL; in [5], 0.247 µg/mL. Besides, the IC50, pseudovirus neutralization is 0.579 µg/mL in test [2] and above 50 µg/mL in [6]. Also, the IC50 (µg/mL), pseudovirus neutralization in test [3] was above 50 µg/mL; in test [4] it was 1.28 µg/mL; in [7] it was 4.69 µg/mL.

As for 5343_B08 (PGT-135) (antibody), the IC50, pseudovirus neutralization in test [24] was above 50 µg/mL; in test [26], 0.636 µg/mL; in test [27] it was above 50 µg/mL; in test [29] it was above 50 µg/mL; in test [30], above 50 µg/mL; in test [34] it was above 50 µg/mL. For the same substance, the Fold IC50 increase relative to wild-type (pseudovirus neutralization) in test [25] is 0.2 fold. Besides, the IC50 (µg/mL), pseudovirus neutralization in [28] is above 50 µg/mL; in [31] it was above 50 µg/mL; in test [32] it was 5.15 µg/mL; in test [33], above 50 µg/mL.

Regarding 4877_D15 (PGT-122) (antibody), the IC50, pseudovirus neutralization in [36] was 42.4 µg/mL; in test [38], 0.008 µg/mL; in test [39] it was 0.011 µg/mL; in test [40] it was 0.778 µg/mL; in [41], 0.689 µg/mL; in test [42], 0.138 µg/mL. Also, the IC50 (µg/mL), pseudovirus neutralization in test [37] is 0.321 µg/mL; in test [35], above 50 µg/mL.

As to 1496_C09 (PG9) (TCN-109) (antibody), the IC50, pseudovirus neutralization in test [8] was determined as 1.91 µg/mL; in test [11], 2.03 µg/mL. In addition, the IC50 (µg/ml), pseudovirus neutralization came to 0.27 µg/mL in test [9]; 0.17 µg/mL in [10]; 5.43 µg/mL in test [19]; 0.04 µg/mL in [20]; 0.03 µg/mL in test [22]; 0.19 µg/mL in [23]. Further, the values for the IC50 (µg/mL), pseudovirus neutralization in [35] and in [7] were 22.8 µg/mL and 1.36 µg/mL, respectively.
